Test results from publication doi:10.1101/2024.10.11.617635 (bioRxiv, 2024).

Biological target: the molecule itself

Protein	stoichiometry N
NADK (non-methylated; construct not stated) (enzyme, human, UniProt O95544 1-446, looked up) MEMEQEKMTMNKELSPDAAAYCCSACHGDETWSYNHPIRGRAKSRSLSASPALGSTKEFRRTRSLHGPCPVTTFGPKACVLQNPQTIMHIQDPASQRLTWNKSPKSVLVIKKMRDASLLQPFKELCTHLMEENMIVYVEKKVLEDPAIASDESFGAVKKKFCTFREDYDDISNQIDFIICLGGDGTLLYASSLFQGSVPPVMAFHLGSLGFLTPFSFENFQSQVTQVIEGNAAVVLRSRLKVRVVKELRGKKTAVHNGLGENGSQAAGLDMDVGKQAMQYQVLNEVVIDRGPSSYLSNVDVYLDGHLITTVQGDGVIVSTPTGSTAYAAAAGASMIHPNVPAIMITPICPHSLSFRPIVVPAGVELKIMLSPEARNTAWVSFDGRKRQEIRHGDSISITTSCYPLPSICVRDPVSDWFESLAQCLHWNVRKKQAHFEEEEEEEEEG	4
methylated NADK (construct not stated) (enzyme, human, UniProt O95544 1-446, looked up, arginine methylation (the paper's sites are R39, R41 and R45, mono- and di-methylated); extent not stated) MEMEQEKMTMNKELSPDAAAYCCSACHGDETWSYNHPIRGRAKSRSLSASPALGSTKEFRRTRSLHGPCPVTTFGPKACVLQNPQTIMHIQDPASQRLTWNKSPKSVLVIKKMRDASLLQPFKELCTHLMEENMIVYVEKKVLEDPAIASDESFGAVKKKFCTFREDYDDISNQIDFIICLGGDGTLLYASSLFQGSVPPVMAFHLGSLGFLTPFSFENFQSQVTQVIEGNAAVVLRSRLKVRVVKELRGKKTAVHNGLGENGSQAAGLDMDVGKQAMQYQVLNEVVIDRGPSSYLSNVDVYLDGHLITTVQGDGVIVSTPTGSTAYAAAAGASMIHPNVPAIMITPICPHSLSFRPIVVPAGVELKIMLSPEARNTAWVSFDGRKRQEIRHGDSISITTSCYPLPSICVRDPVSDWFESLAQCLHWNVRKKQAHFEEEEEEEEEG	4
